Experimental data as given in PMC4927293.

Molecular target: heat-aggregated GFP

apparent KM for aggregated GFP from initial rates of GFP disaggregation by Hsp104 D484K (0.06 uM, 10 mM ATP): fold gain of affinity with Ssa1 (2 uM) and Ydj1 (0.5 uM): > 25 fold | apparent KM for aggregated GFP from initial rates of GFP disaggregation by Hsp104 D484K (0.06 uM, 10 mM ATP): fold increase of the apparent KM with 1 mM ADP: 2 fold
Substance: Hsp104 D484K (from UniProt P31539 1-908) (enzyme)
